Assay results published in US20170088602A1 (Bristol-Myers Squibb, published 2017).

T1: human myostatin (mature, recombinant; R&D Systems) (human, UniProt O14793 267-375)
T1 sequence: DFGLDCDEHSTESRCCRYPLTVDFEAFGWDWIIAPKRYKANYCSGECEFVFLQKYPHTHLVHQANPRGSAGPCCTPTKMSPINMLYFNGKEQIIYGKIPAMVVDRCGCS

T2: human BMP-11 (GDF-11; R&D Systems) (human, UniProt O95390 299-407)
T2 sequence (looked up): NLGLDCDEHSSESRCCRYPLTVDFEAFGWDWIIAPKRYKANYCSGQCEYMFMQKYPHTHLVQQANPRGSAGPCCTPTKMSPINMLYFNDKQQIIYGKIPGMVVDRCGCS

T3: human Activin A (R&D Systems) (human, UniProt P08476 311-426)
T3 sequence (looked up): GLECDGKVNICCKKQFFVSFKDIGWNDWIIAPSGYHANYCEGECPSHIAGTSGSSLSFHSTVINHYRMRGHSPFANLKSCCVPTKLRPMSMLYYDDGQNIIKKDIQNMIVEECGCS

B1: 3007_B08 (designed binder)
chain: MGVSDVPRDLEVVAATPTSLLISWSLPTPGLAHYYRITYGETGGNSPVQEFTVPGRGVTATISGLKPGVDYTITVYAVTVTHHGVIGYKPISINYRTEIDKPSQHHHHHH
B2: 3007_C09 (designed binder)
chain: MGVSDVPRDLEVVAATPTSLLISWSLPHRGVANYYRITYGETGGNSPVQEFTVPGRGVTATISGLKPGVDYTITVYAVTLTGANVIIYKPISINYRTEIDKPSQHHHHHH
B3: 3007_C10 (designed binder)
chain: MGVSDVPRDLEVVAATPTSLLISWSLPSSGVAHYYRITYGETGGNSPVQEFTVPGRGVTATISGLKPGVDYTITVYAVTVTNTGVIIYKPISINYRTEIDKPSQHHHHHH
B4: 3008_A03 (designed binder)
chain: MGVSDVPRDLEVVAATPTSLLISWSLPHHGFGHYYRITYGETGGNSPVQEFTVPGRGVTATISGLKPGVDYTITVYAVTVTATGIIIYKPISINYRTEIDKPSQHHHHHH
B5: 3008_B08 (designed binder)
chain: MGVSDVPRDLEVVAATPTSLLISWSLPHAGDAHYYRITYGETGGNSPVQEFTVPGRGVTATISGLKPGVDYTITVYAVTVTRAGFYRYKPISINYRTEIDKPSQHHHHHH
B6: 3008_D04 (designed binder)
chain: MGVSDVPRDLEVVAATPTSLLISWSLPHNGVAHYYRITYGETGGNSPVQEFTVPGRGVTATISGLKPGVDYTITVYAVTVTREEVISYKPISINYRTEIDKPSQHHHHHH
B7: 3008_F01 (designed binder)
chain: MGVSDVPRDLEVVAATPTSLLISWSLPRQGLANYYRITYGETGGNSPVQEFTVPGRGVTATISGLKPGVDYTITVYAVTVTAAGVIIYKPISINYRTEIDKPSQHHHHHH
B8: ATI-1340 [N-ethylmaleimide] (designed binder)
chain: MGVSDVPRDLEVVAATPTSLLISWTLPHAGRAHYYRITYGETGGNSPVQEFTVPGRGVTATISGLKPGVDYTITVYAVTVTTTKVIHYKPISINYRTEGSGCHHHHHH
modifications: N-ethylmaleimide on the Cys of the EGSGC tail
notes: cysteine mutant of 2987_H07
B9: 2987_A06 (designed binder)
chain: MGVSDVPRDLEVVAATPTSLLISWSLPHAGHAHYYRITYGETGGNSPVQEFTVPGRGVTATISGLKPGVDYTITVYAVTLTKSKIIHYMPISINYRTEIDKPSQHHHHHH
B10: 2987_B04 (designed binder)
chain: MGVSDVPRDLEVVAATPTSLLISWSLPYPGHLNYYRITYGETGGNSPVQEFTVPGRGVTATISGLKPGVDYTITVYAVTLTKSKIIHYMPISINYRTEIDKPSQHHHHHH
B11: 2987_B09 (designed binder)
chain: MGVSDVPRDLEVVAATPTSLLISWTLPHAGRAHYYRITYGETGGNSPVQEFTVPGRGVTATISGLKPGVDYTITVYAVTLTRSKIIHYMPISINYRTEIDKPSQHHHHHH
B12: 2987_C02 (designed binder)
chain: MGVSDVPRDLEVVAATPTSLLISWSLPYAGHAHYYRITYGETGGNSPVQEFTVPGRGVTATISGLKPGVDYTITVYAVTLTKSKIIHYMPISINYRTEIDKPSQHHHHHH
B13: 2987_D05 (designed binder)
chain: MGVSDVPRDLEVVAATPTSLLISWSLPHAGHAHYYRITYGETGGNSPVQEFTVPGRGVTATISGLKPGVDYTITVYAVTLTRSKIIHYMPISINYRTEIDKPSQHHHHHH
B14: 2987_E03 (designed binder)
chain: MGVSDVPRDLEVVAATPTSLLISWSLPYPGHLNYYRITYGETGGNSPVQEFTVPGRGVTATISGLKPGVDYTITVYAVTLTRSKIIHYMPISINYRTEIDKPSQHHHHHH
B15: 2987_E08 (designed binder)
chain: MGVSDVPRDLEVVAATPTSLLISWTLPHAGRAHYYRITYGETGGNSPVQEFTVPGRGVTATISGLKPGVDYTITVYAVTVSSTKVIHYKPISINYRTEIDKPSQHHHHHH
B16: 2987_F01 (designed binder)
chain: MGVSDVPRDLEVVAATPTSLLISWSLPYAGHAHYYRITYGETGGNSPVQEFTVPGRGVTATISGLKPGVDYTITVYAVTLTRSKIIHYMPISINYRTEIDKPSQHHHHHH
B17: 2987_F06 (designed binder)
chain: MGVSDVPRDLEVVAATPTSLLISWSLPHAGHAHYYRITYGETGGNSPVQEFTVPGRGVTATISGLKPGVDYTITVYAVTLTKSKVIHYMPISINYRTEIDKPSQHHHHHH
B18: 2987_G04 (designed binder)
chain: MGVSDVPRDLEVVAATPTSLLISWSLPYPGHLNYYRITYGETGGNSPVQEFTVPGRGVTATISGLKPGVDYTITVYAVTLTKSKVIHYMPISINYRTEIDKPSQHHHHHH
B19: 2987_G09 (designed binder)
chain: MGVSDVPRDLEVVAATPTSLLISWTLPHAGRAHYYRITYGETGGNSPVQEFTVPGRGVTATISGLKPGVDYTITVYAVTVSSTKVIVYLPISINYRTEIDKPSQHHHHHH
B20: 2987_H02 (designed binder)
chain: MGVSDVPRDLEVVAATPTSLLISWSLPYAGHAHYYRITYGETGGNSPVQEFTVPGRGVTATISGLKPGVDYTITVYAVTLTKSKVIHYMPISINYRTEIDKPSQHHHHHH

How the values were obtained:
[1] = biological target: T1, human myostatin (mature, recombinant; …); experiment: cell-based or functional assay
[2] = biological target: T2, human BMP-11 (GDF-11; R&D Systems); experiment: cell-based or functional assay
[3] = biological target: T3, human Activin A (R&D Systems); experiment: cell-based or functional assay
[4] = biological target: T1, human myostatin (mature, recombinant; …); experiment: cell-based or functional assay; remark: listed apart in the source
[5] = biological target: T1, human myostatin (mature, recombinant; …); experiment: competitive HTRF (1889E01/myostatin/ActRIIb-Fc sandwich)
Excerpt: An HTRF assay was used to measure the binding affinities of anti-myostatin Adnectins to myostatin. […] The Eu-W 1024 labeled Streptavidin is used to bind biotinylated 1889E01. […] In the presence of a competitive Adnectin, the HTRF signal decreases.

| Binder | ARE-luciferase IC50 [1] [nM] | ARE-luciferase IC50 [2] [nM] | ARE-luciferase IC50 [3] [nM] | pSmad2 % inhibition at 10 nM [4] [%] | IC50 [5] [nM] |
| --- | --- | --- | --- | --- | --- |
| B1 | 0.06 | 0.23 | 423 | 97 | 0.14 |
| B2 | 0.04 | 0.89 | 417 | 80 | 0.14 |
| B3 | 0.03 | 1 | > 2000 | 76 | 0.14 |
| B4 | 0.11 | 22.6 | > 2000 | 87 | 0.22 |
| B5 | 0.35 | 9.3 | 254 | 90 | 0.37 |
| B6 | 0.09 | 1.2 | 720 | 92 | 0.14 |
| B7 | 0.08 | 0.12 | > 2000 | 86 | 0.21 |
| B8 | 0.05 | 4.87 | 324 |  | 0.16 |
| B9 | 0.1 | 23 | 283 |  |  |
| B10 | 0.12 | 3.3 | 239 |  |  |
| B11 | 0.01 | 0.92 | 172 |  |  |
| B12 | 0.06 | 7.1 | 464 |  |  |
| B13 | 0.11 | 2.4 | 2000 |  |  |
| B14 | 0.1 | 2.3 | 224 |  |  |
| B15 | 0.05 | 2.8 | 352 |  |  |
| B16 | 0.05 | 6.5 | 594 |  |  |
| B17 | 0.08 | 20 | 538 |  |  |
| B18 | 0.09 | 3.3 | 171 |  |  |
| B19 | 0.05 | 0.91 | > 2000 |  |  |
| B20 | 0.05 | 11 | 794 |  |  |
